Reference: PMC7939481

Target: human CaV2.1 (P/Q-type) voltage-gated calcium channel (human)

τ activation of hCaV2.1 macroscopic current with co-expressed human Gβ1γ2, after a +150 mV prepulse: 3.26 ms
τ activation of hCaV2.1 macroscopic current with co-expressed human Gβ1γ2, without prepulse (1.16-1.20 ms without G proteins): 10.6 ms
Substance: human G-protein Gβ1γ2 heterodimer (from UniProt P62873-1 1-340; P59768 1-71) (complex)
